Here are results for one substance from article PMC11388069.

A short description of series [1]: AHA labelling of newly synthesized P-gp. The following applies: glycan changed form; control: parental MCF7DOX.
Series [2] can be described thus: immunofluorescence, plasma membrane P-gp. As to conditions: glycan changed form; control: parental MCF7DOX.
The nature of series [3]: NHS-LC-biotin labelled membranous P-gp degradation. As to conditions: glycan changed form; control: parental MCF7DOX.
Series [4] is described as follows: proteomics and blot of isolated microvesicles. As to conditions: glycan changed form; control: MCF7DOX-MVs.
The nature of series [5]: immunoprecipitation, western blot. As to conditions: glycan changed form; control: parental MCF7DOX. Background: Immunoblotting shows a protein as a band on a membrane.

With “P-glycoprotein (P-gp, MDR1): MGAT3 overexpression”, the “other: new protein synthesis” value in series [1] was “no change”. Further, the localisation_or_trafficking result in series [2] is “decreases”. Moreover, the degradation_or_half_life entry in series [3] is listed as “increases”. In addition, in series [4], the “other: recruitment into microvesicles” value is listed as “decreases”. For the same substance, the expression_or_secretion entry in series [5] is listed as “decreases”.
